According to the Human Domainome abundance scans (Beltran et al. 2025):

B1: POU domain, class 3, transcription factor 1, residues 247 to 324; numbered along this chain, Q03052 (parent)
chain: EDAPSSDDLEQFAKQFKQRRIKLGFTQADVGLALGTLYGNVFSQTTICRFEALQLSFKNMCKLKPLLNKWLEETDSSS
B2: Cytoplasmic polyadenylation element-binding protein 2, residues 513 to 575; numbered along this chain, Q7Z5Q1 (parent)
chain: KRVEVKPYVLDDQMCDECQGARCGGKFAPFFCANVTCLQYYCEFCWANIHSRAGREFHKPLVK

Variants of: B1
Experiment: abundance fitness (aPCA) (normalised: wild type 0, dead -1); higher = more abundant; growth selection in yeast, the domain comes from the species named
Settings: Homo sapiens

Abundance fitness of substitutions, site by site:
E73: L -0.018, M -0.012, R -0.081, P -0.378, F -0.105, H -0.03, I -0.351, N -0.154, V -0.128, D 0.267, T -0.034, A -0.038, G -0.196, Y -0.197, W -0.137, S -0.126, Q 0.041
E72: M 0.037, V -0.1, I -0.245, F -0.493, G -0.368, S -0.212, T -0.148, Y -0.19, L -0.024, K -0.049, Q -0.143, H -0.018, R -0.079, D 0.004, A -0.193, C -0.247, N -0.152, P -0.736
S76: H -0.196, T 0.103, L -0.112, I -0.426, K 0.12, R 0.058, D 0.089, A -0.096, C -0.341, V -0.015, Q 0.106, W -0.495, P 0.099, M 0.012, G 0.062
S78: K 0.164, L 0.091, G 0.153, E -0.045, T 0.087, A -0.023, V 0.021, F -0.199, N 0.256, M -0.256, Q -0.158, P -0.019, D 0.212, C 0.08, Y -0.008, R -0.032, W -0.189
S77: W -0.19, I -0.113, F -0.243, D 0.036, G 0.159, Y 0.044, V 0.045, K 0.096, C -0.165, T 0.061, Q 0.106, L -0.098, H 0.054, M -0.029, P 0.071, E 0.002, N -0.141, R -0.022, A 0.065
D75: S 0.138, Y 0.151, W -0.262, T -0.274, R -0.077, Q 0.165, L -0.214, H 0.395, E 0.109, A -0.015, V -0.115, I -0.038, M -0.4, C 0.089, P 0.178, K -0.207
T74: S -0.141, R -0.009, Q 0.089, E -0.121, A 0.12, H 0.231, M -0.062, G -0.418, C -0.009, K 0.04, F 0.453, N 0.278, I -0.479, Y -0.156, W -0.224, V 0.042

Variants of: B2
Experiment: as above
Settings: Homo sapiens

Abundance fitness, by site and new letter:
P7: A -0.227, Q -0.098, E 0.051, G -0.141, M -0.259, N 0.01, W -0.622, V -0.735, F -0.413, K 0.046, T -0.014, D 0.132, L -0.579, I -1.07, R -0.125, Y -0.405, H -0.086
D11: A -0.122, Y -0.112, R -0.068, Q -0.037, I 0.022, E 0.084, P -0.183, N -0.028, W -0.238, C -0.205, M -0.259, V -0.075, T -0.239, S -0.125, G -0.041, F -0.149, L -0.27
L10: Q 0.121, N 0.005, W 0.056, H -0.227, R 0.046, E 0.076, Y -0.193, V -0.106, T 0.045, K 0.1, G 0.032, C -0.065, F 0.009, I -0.062, M 0.037, P -0.028
K1: C -0.276, L -0.417, I -0.215, M -0.184, T -0.036, R -0.216, W -0.985, F -0.292, N 0.143, Q -0.248, E 0.038, G -0.218, V -0.509, D -0.01, Y -0.236, H -0.599, A -0.32
D12: L -0.288, S -0.146, M -0.189, A -0.117, W -0.225, Q 0.052, F -0.312, N -0.019, T -0.168, G -0.066, K 0.012, V -0.221, P -0.107, H 0.049, C -0.305, Y -0.273, R -0.182
R2: D 0.001, A -0.096, E 0.067, C -0.229, K 0.101, Y -0.513, T -0.115, Q -0.028, P 0.015, L -0.363, V -0.187, G -0.077, I 0.048, H -0.319, M -0.012
V9: Q 0.096, K -0.003, M 0.049, H 0.051, D 0.083, N 0.007, A -0.02, E -0.022, P -0.055, I -0.022, R -0.14, S 0.058, G -0.087, L -0.043, Y -0.212, T -0.036, C -0.002
Y8: S 0.121, G 0.154, W -0.091, K 0.121, V -0.086, H -0.036, T -0.026, I -0.026, P 0.075, N 0.13, Q 0.012, E 0.18, C -0.115, A 0.01, R 0.064, M -0.365
V5: F -0.098, T 0.006, P 0.167, Y -0.141, Q 0.077, S 0.105, M -0.011, R 0.005, L -0.136, W -0.247, C -0.074, I -0.113, E 0.144, N 0.048, A -0.088
Q13: F -0.229, S -0.144, H -0.087, R 0.003, W -0.372, A -0.017, I -0.197, V -0.083, E -0.358, K 0.161, Y -0.217, L -0.291, T -0.087, G -0.378, C -0.146, M -0.056, P -0.211, N -0.131
E4: V -0.223, I -0.289, F -0.208, L -0.322, Y -0.275, N -0.15, K -0.239, Q -0.099, M -0.242, C -0.353, G -0.234, T -0.111, H -0.363, D -0.132, P -0.145, S -0.185, A -0.15
K6: V -0.104, D 0.029, P -0.102, N 0.006, F -0.337, Q -0.083, A -0.045, W -0.315, S -0.085, Y -0.382, M -0.028, G -0.017, H -0.225, E -0.069, R -0.128, L -0.297
V3: H -0.039, L -0.156, I -0.041, A 0.059, T 0.167, E 0.084, K 0.112, D 0.107, Y -0.37, M -0.091, G -0.1, N -0.207, S 0.013, F -0.197, R -0.1, P -0.028, Q 0.11, C -0.945
